Results from PMC3751641, “Mena/VASP and αII-Spectrin complexes regulate cytoplasmic actin networks in cardiomyocytes and protect from conduction abnormalities and dilated cardiomyopathy” (Cell Communication and Signaling : CCS, 2013).

How the values were obtained:
[1] = target: T1, SH3i, αII-Spectrin splice variant, endogenous in adult mouse heart (mouse (endogenous in mouse heart), UniProt P16546 1-2472); test: co-IP; adult mouse heart lysate incubated with 5 μg purified anti-Mena, anti-αII-Spectrin or anti-SH3i antibodies, then protein A-sepharose; washed in lysis buffer; Western blot; GST-specific antibodies as control; details: partners not purified
T1 construct: source: endogenous, adult mouse heart lysate

[2] = target: T2, GST-α9A (α9 repeat of the αII-Spectrin splice variant SH3i, with the alternatively spliced 20 amino acids) (mouse, UniProt P16546 893-1088); test: pull-down; 5 μg GST or equimolar GST-fusion proteins immobilised on glutathione sepharose, incubated with cleared adult mouse heart lysate (40 mM Hepes-NaOH pH 7.4, 75 mM NaCl, 1% NP40, protease inhibitors); blot with anti-Mena; details: one partner purified
T2 construct: mouse αII-Spectrin, splice variant SH3i (protein ID AAI50942), amino acids Q893-E1088: the α9 repeat with the SH3 domain and the 20-residue insert T1053-L1072; numbers count on: SH3i, AAI50942; cDNA subcloned into the pGEX-6P2 vector

- fold more Mena precipitated than by general αII-Spectrin-specific antibodies [1]: 8 fold
- fold more Mena precipitated than by α9 or SH3 [2]: ≥ 10 fold
B1: Mena (mammalian Enabled) (natural protein, mouse (endogenous in mouse heart), UniProt Q03173-3 1-541, looked up)
chain: MSEQSICQARAAVMVYDDANKKWVPAGGSTGFSRVHIYHHTGNNTFRVVGRKIQDHQVVINCAIPKGLKYNQATQTFHQWRDARQVYGLNFGSKEDANVFASAMMHALEVLNSQEAGPTLPRQNSQLPAQVQNGPSQEELEIQRRQLQEQQRQKELERERMERERLERERLERERLERERLEQEQLERQRQEREHVERLERERLERLERERQERERERLEQLEREQVEWERERRMSNAAAPASAETPLNPELGDSSASEPGLQAASQPAESPTPQGLVLGPPAPPPPPPLPSGPAYASALPPPPGPPPPPPLPSTGPPPPPPPPPPLPNQAPPPPPPPPAPPLPASGIFSGSTSEDNRPLTGLAAAIAGAKLRKVSRVEDGSFPGGGNTGSVSLASSKADAGRGNGPLPLGGSGLMEEMSALLARRRRIAEKGSTIETEQKEDRNEDAEPITAKAPSTSTPEPTRKPWERTNTMNGSKSPVISRPKSTPSSQPSANGVQTEGLDYDRLKQDILDEMRKELAKLKEELIDAIRQELSKSNTA
notes: mouse Mena, endogenous; two isoforms exist in the mouse heart, the general one (~80 kDa, 541 aa) and the neuronal splice variant (~140 kDa); source: endogenous, adult mouse heart lysate
